Drawing on PMC5316894, “Cationic amino acid transporters play key roles in the survival and transmission of apicomplexan parasites” (Nature Communications, 2017), this text covers Km for 2 proteins.

What is called Km is the substrate concentration at which the rate is half of its maximum.

What all share (experiment): cells, lysate or membranes
Substrate in data set [1]: N=C(N)NCCC[C@H](N)C(=O)O
It counts as cell-based, Toxoplasma gondii. The note with it: ND96, pH 7.4, 0-1 mM arginine, labelled compound, Figure 3 legend prints 88±16.

Substrate in data set [2]: N=C(N)NCCC[C@H](N)C(=O)O
Type of data set: cell-based, Plasmodium berghei. The note with it: ND96, pH 7.4, 125 μM unlabelled methionine present to lower background, labelled compound.

Substrate in data set [3]: NCCCC[C@H](N)C(=O)O
It counts as cell-based, Plasmodium berghei. The following applies: ND96, pH 7.4, 500 μM unlabelled methionine present to lower background, labelled compound.

B1: TgNPT1 (TgNPT1-HA) (Toxoplasma gondii ME49) (protein)
chain: MAGLLSSCCGRVYALLPDSAHPSAQQKTPFGVNRYVLLVIYMIYALLTSSVYFGWRSMSAMLFKSGQFSWVCTGESADTSPEEGETDYLCALQDTKVQSLFTIAMACHFTCSAVAGYLLDTVGPKAVALLGQTFNALAWILLAFSGPNFRSVYPAFVFMGAGADVSVYPTLLIVNLFPGSTALIMATLGACISLSFFVPLVLRTMWESTGISFEAVCIGYAVAGPILCAVVAFFFIPFKAFKGVDNFSACVEAEKLANSPTAQSSPKAVDSPPCDEGASSRGRLAVSHNTERTAPDDEQEKDNTERISLSDLACDPRFKKQKVSFSSQAFTFLYFGICLYFTVCGWVMAYYQEAAGRFLCNDAEYTLEILTPLSTIPCLLFGVVINRIGIMPVILMLNTIGLLTYVCVVAAESVVAQYFSVIFFFMYISIFTTQMYVFVESTFDSAHFGKLIGVASLIGGLLSLISNVLYGDVTVGMLNGDTRPVVIALLAVIILMYPILLAMRTKRNRKKQMEQEDIRSRVLELKAAHAADAA
notes: full ORF from RH cDNA, C-terminal HA tag, cRNA in Xenopus laevis oocytes (pGHJ-HA); calculated 58 kDa, runs at ~40 kDa in parasites; 12 predicted TM domains
Consider B1, for which the Km in data set [1] was 88 ± 15 µM.

B2: PbNPT1 (PbNPT1-HA) (Plasmodium berghei ANKA) (protein)
chain: MNESNCTKIVNFLKGMRLKTNPNLPGAKQKTPLNIHRFYLLLIIIIYTATSACIYFDWTSIRNLLLNVGKYEHLNISKYADITLSPQYKKINNLYPMTLAIHFTMSVFCGFLYDHIGPKFTAIIGQGFNILSWIFLSIDTTKIDTTLIGFIFLGLGADTAFIPILTVSNLFPDISTFIMTVIGAAASLSYAVPATLNFVYKKYPHFPFYYICYGYIFIILIPCLLVATFLLPMKPFKGLDYYLENDQESDSKNKEQISYTDNDVEMQPSLIQNGNTNVSNNVNKNKATKNIIEGENFHKQSILLFFKVLLSYPSICIIVYFILFNISTVFYGMVTDIYFSYNKSIINIINILMPISFIPCIIFGRFINKYGAAIIIIIMNAFSALMHLTALIKHQAAGLISAFLYMCAASIYTSQIYCFLLNAFPSVVFGKLLGITSLFGGMFSLFCEKLYDNISNSSGNKNDPTTISILLAISFIIMFLPLSILYTRNYEKNIESVNSEKNQIQA
notes: full ORF, synthetic codon-harmonized gene, C-terminal HA tag, cRNA in Xenopus laevis oocytes (pGHJ-HA)
As for B2, the Km in data set [2] came to 41 ± 9 µM; in data set [3], 130 ± 26 µM.
